According to PMC7971878:

Assays:
[1] = target: CSFV sE2 (soluble E2 protein, 693-1020aa) with (His)6 tag (classical swine fever virus); assay: SPR; Biacore T100; […] (20 μg/ml) […]; 20 mM Hepes, 150 mM NaCl, 0.005% Tween 20, pH 7.4, […]; 1:1 binding model
[2] = target: CSFV sE2 (soluble E2 protein, 693-1020aa) with (His)6 tag (classical swine fever virus); assay: SPR; Biacore […] (20 μg/ml) […]; 20 mM Hepes, 150 mM NaCl, 0.005% Tween 20, pH 7.4, […]; 1:1 binding model

soluble metalloproteinase domain of pig ADAM17 (sMP) with (His)6 tag (from UniProt O77636 18-477) (domain or fragment)
Kd [1]: 100 nM
Kd [2]: 3200 nM
